# Patent WO2023191079A1 (dated 2023)
# Biological target: T1, SpyCatcher-GOx (fusion protein with SpyCatcher and glucose oxidase in this order from the N-terminus)
# T1 construct: also called SpyCatcher-fused glucose oxidase; SpyCatcher fusion GOx
# Test: 5 uM each mixed, overnight at 4 C, SDS-PAGE
binder,measurement,value
scFv-ST (anti-CRP scFv antibody with SpyTag added) (scFv) scFv: HMASQVQLQQSGAELVKPGASVKLSCTASGFNIKDYYMHWVKQRTEQGLEWIGRIDPEDGETKYAPKFQGKATITADTSSNTAYLQLSSLTSEDTAVYYCARGYYGSEAMDYWGQGTSLTVSSGGGGSGGGGSGGGGSTGSIVMTQSHKFMSTSVGDRVSITCKASQDVNTAVAWYQQKPGQSPKLLIYWASTRHTGVPDRFTGSGFGTDYTLTISSVQAEDLALYYCQQHYSTPWTFGGGTKLEIKRADAAPKLAAAGSGAHIVMVDAYKPTKAEQKLISEEDLNLGGGMRGSHHHHHH,binding result,binds
